Literature values in PMC4465046.

Molecular target: HIV-1 protease (Human immunodeficiency virus 1) (UniProt O93215)

## HIV-1 protease (from UniProt O93215)
  Kd: 6.8 nM
